# Measured values from the Human Domainome abundance scans (Beltran et al. 2025).
# ± gives the uncertainty stated by the source.
# B1: COUP transcription factor 1, residues 83 to 159; numbered along this chain, P10589 (parent)
# chain: HIECVVCGDKSSGKHYGQFTCEGCKSFFKRSVRRNLTYTCRANRNCPIDQHHRNQCQYCRLKKCLKVGMRREAVQRG
# Variants of: B1
# Test: abundance fitness (aPCA) (normalised: wild type 0, dead -1); higher = more abundant; growth selection in yeast, the domain comes from the species named
# Conditions: Homo sapiens
row,Variant,abundance fitness
1,HIECVVCGDKSSGKHYYQFTCEGCKSFFKRSVRRNLTYTCRANRNCPIDQHHRNQCQYCRLKKCLKVGMRREAVQRG [G17Y],-0.396 ± 0.36
2,HIECVVCGDKSSGKHYSQFTCEGCKSFFKRSVRRNLTYTCRANRNCPIDQHHRNQCQYCRLKKCLKVGMRREAVQRG [G17S],-0.191 ± 0.067
3,HIECVVCGDKSSGKHYTQFTCEGCKSFFKRSVRRNLTYTCRANRNCPIDQHHRNQCQYCRLKKCLKVGMRREAVQRG [G17T],-0.319 ± 0.16
4,HIECVVCGDKSSGKHYAQFTCEGCKSFFKRSVRRNLTYTCRANRNCPIDQHHRNQCQYCRLKKCLKVGMRREAVQRG [G17A],-0.358 ± 0.071
5,HIECVVCGDKSSGKHYHQFTCEGCKSFFKRSVRRNLTYTCRANRNCPIDQHHRNQCQYCRLKKCLKVGMRREAVQRG [G17H],-0.459 ± 0.24
6,HIECVVCGDKSSGKHYPQFTCEGCKSFFKRSVRRNLTYTCRANRNCPIDQHHRNQCQYCRLKKCLKVGMRREAVQRG [G17P],-0.572 ± 0.17
7,HIECVVCGDKSSGKHYNQFTCEGCKSFFKRSVRRNLTYTCRANRNCPIDQHHRNQCQYCRLKKCLKVGMRREAVQRG [G17N],-0.165 ± 0.21
8,HIECVVCGDKSSGKHYEQFTCEGCKSFFKRSVRRNLTYTCRANRNCPIDQHHRNQCQYCRLKKCLKVGMRREAVQRG [G17E],-0.156 ± 0.075
9,HIECVVCGDKSSGKHYRQFTCEGCKSFFKRSVRRNLTYTCRANRNCPIDQHHRNQCQYCRLKKCLKVGMRREAVQRG [G17R],-0.421 ± 0.07
10,HIECVVCGDKSSGKHYLQFTCEGCKSFFKRSVRRNLTYTCRANRNCPIDQHHRNQCQYCRLKKCLKVGMRREAVQRG [G17L],-0.437 ± 0.086
11,HIECVVCGDKSSGKHYQQFTCEGCKSFFKRSVRRNLTYTCRANRNCPIDQHHRNQCQYCRLKKCLKVGMRREAVQRG [G17Q],0.044 ± 0.091
12,HIECVVCGDKSSGKHYVQFTCEGCKSFFKRSVRRNLTYTCRANRNCPIDQHHRNQCQYCRLKKCLKVGMRREAVQRG [G17V],-0.421 ± 0.069
13,HIECVVCGDKSSGKHYKQFTCEGCKSFFKRSVRRNLTYTCRANRNCPIDQHHRNQCQYCRLKKCLKVGMRREAVQRG [G17K],-0.452 ± 0.17
14,HIECVVCGDKSSGKHYIQFTCEGCKSFFKRSVRRNLTYTCRANRNCPIDQHHRNQCQYCRLKKCLKVGMRREAVQRG [G17I],-0.515 ± 0.28
15,HIECVVCGDKSSGKHYMQFTCEGCKSFFKRSVRRNLTYTCRANRNCPIDQHHRNQCQYCRLKKCLKVGMRREAVQRG [G17M],-0.703 ± 0.42
16,HIECVVCGDKSSGKHYCQFTCEGCKSFFKRSVRRNLTYTCRANRNCPIDQHHRNQCQYCRLKKCLKVGMRREAVQRG [G17C],-0.274 ± 0.16
17,HIECVVCGDKSSGKHYDQFTCEGCKSFFKRSVRRNLTYTCRANRNCPIDQHHRNQCQYCRLKKCLKVGMRREAVQRG [G17D],-0.072 ± 0.067
18,HIECVVCGDKSSGKHYGKFTCEGCKSFFKRSVRRNLTYTCRANRNCPIDQHHRNQCQYCRLKKCLKVGMRREAVQRG [Q18K],-0.031 ± 0.12

row,Variant,abundance fitness
1,HIECVVCGDKSSGKHYGMFTCEGCKSFFKRSVRRNLTYTCRANRNCPIDQHHRNQCQYCRLKKCLKVGMRREAVQRG [Q18M],0.067 ± 0.12
2,HIECVVCGDKSSGKHYGCFTCEGCKSFFKRSVRRNLTYTCRANRNCPIDQHHRNQCQYCRLKKCLKVGMRREAVQRG [Q18C],0.187 ± 0.091
3,HIECVVCGDKSSGKHYGTFTCEGCKSFFKRSVRRNLTYTCRANRNCPIDQHHRNQCQYCRLKKCLKVGMRREAVQRG [Q18T],-0.137 ± 0.25
4,HIECVVCGDKSSGKHYGIFTCEGCKSFFKRSVRRNLTYTCRANRNCPIDQHHRNQCQYCRLKKCLKVGMRREAVQRG [Q18I],-0.051 ± 0.18
5,HIECVVCGDKSSGKHYGEFTCEGCKSFFKRSVRRNLTYTCRANRNCPIDQHHRNQCQYCRLKKCLKVGMRREAVQRG [Q18E],0.143 ± 0.054
6,HIECVVCGDKSSGKHYGAFTCEGCKSFFKRSVRRNLTYTCRANRNCPIDQHHRNQCQYCRLKKCLKVGMRREAVQRG [Q18A],0.098 ± 0.057
7,HIECVVCGDKSSGKHYGRFTCEGCKSFFKRSVRRNLTYTCRANRNCPIDQHHRNQCQYCRLKKCLKVGMRREAVQRG [Q18R],-0.041 ± 0.053
8,HIECVVCGDKSSGKHYGSFTCEGCKSFFKRSVRRNLTYTCRANRNCPIDQHHRNQCQYCRLKKCLKVGMRREAVQRG [Q18S],-0.028 ± 0.068
9,HIECVVCGDKSSGKHYGGFTCEGCKSFFKRSVRRNLTYTCRANRNCPIDQHHRNQCQYCRLKKCLKVGMRREAVQRG [Q18G],-0.061 ± 0.047
10,HIECVVCGDKSSGKHYGFFTCEGCKSFFKRSVRRNLTYTCRANRNCPIDQHHRNQCQYCRLKKCLKVGMRREAVQRG [Q18F],0.151 ± 0.21
11,HIECVVCGDKSSGKHYGNFTCEGCKSFFKRSVRRNLTYTCRANRNCPIDQHHRNQCQYCRLKKCLKVGMRREAVQRG [Q18N],-0.345 ± 0.25
12,HIECVVCGDKSSGKHYGPFTCEGCKSFFKRSVRRNLTYTCRANRNCPIDQHHRNQCQYCRLKKCLKVGMRREAVQRG [Q18P],0.079 ± 0.073
13,HIECVVCGDKSSGKHYGDFTCEGCKSFFKRSVRRNLTYTCRANRNCPIDQHHRNQCQYCRLKKCLKVGMRREAVQRG [Q18D],0.08 ± 0.13
14,HIECVVCGDKSSGKHYGLFTCEGCKSFFKRSVRRNLTYTCRANRNCPIDQHHRNQCQYCRLKKCLKVGMRREAVQRG [Q18L],0.01 ± 0.065
15,HIECVVCGDKSSGKHWGQFTCEGCKSFFKRSVRRNLTYTCRANRNCPIDQHHRNQCQYCRLKKCLKVGMRREAVQRG [Y16W],0.132 ± 0.068
16,HIECVVCGDKSSGKHSGQFTCEGCKSFFKRSVRRNLTYTCRANRNCPIDQHHRNQCQYCRLKKCLKVGMRREAVQRG [Y16S],-0.047 ± 0.07
17,HIECVVCGDKSSGKHVGQFTCEGCKSFFKRSVRRNLTYTCRANRNCPIDQHHRNQCQYCRLKKCLKVGMRREAVQRG [Y16V],-0.151 ± 0.062
18,HIECVVCGDKSSGKHTGQFTCEGCKSFFKRSVRRNLTYTCRANRNCPIDQHHRNQCQYCRLKKCLKVGMRREAVQRG [Y16T],-0.274 ± 0.11
